Data reported in the nanobody polyreactivity screen of Harvey et al. (2022).

Experiment: yeast display, Sf9 membrane polyspecificity reagent, FACS + sequencing; frameworks hold sequencing errors
Outline: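 In a synthetic yeast display library (Saccharomyces cerevisiae BJ5465), nanobody expression was induced with galactose for 36–48 hours. FACS gates were set low and high (top ~1%) using anti-HA fluorescence for expression and streptavidin fluorescence for binding of the Sf9 membrane reagent. Each polyreactivity label is drawn from the gate of origin.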

Row | Sequence | polyreactivity (PSR sort gate)
1 | QVQLVESGGGLVQAGGSLPLSCAASGSIVTDNAMGWYRQAPGKERELVAANTSSGNTNYADSVKGRFTISRDNAKNTVDLQMKSLKPEDTAVYYCAADSYYTHWTDWLPVGEDYWGQVTQVTVSS | low polyreactivity
2 | QVQLVDSGGGLVQAGGSLRLSCAASGRTFTVYAMGWYRQAPGKERELVASISGSSGSTDYADSVKGRFTISRDNAKNTVYLQMNSLKPEDTAVYFCAKASSATRYVQLRQDYDYWGQGTQVTVSS | low polyreactivity
3 | QVQLVETGGGLVQAGGSLRLSCAASGIIFGGYDRGWYRQAPGKERELVAAISWSGGSTYYAASVKGRFTISRDNAKNTVYLEMNSLKPEDTAVYYCAAAYYAPTRDYYYWGQGTQVTVSS | low polyreactivity
4 | QVQLQESGGGLVQVGVSQRLSCAASGNIFYNYAMGWYRHAQGKEREFDATINHCTSINYADSVKGLFTISRDNAKKTVYLQMNSLKPEDTAVYYCAADLSWTDNLFYWGQGTQVTVSS | low polyreactivity
5 | QVQHVESGGGLVQAGGSLRLSCAASGYTFCRYAMGWYRQAPGKERELVAAISQSGGRTYYADSVKGRFTISRDNAKNTVYFQMNSLKPDDTAVYYCATSSTQGDDYWGQGTQVTVSS | high polyreactivity
6 | QVQLVESGGGLVQAGGSLRLSCAASGRTFYPYAMGWYRQAPGKERELVAAISYRGGSTYYADSVKGRFTISRDNAKNTVYLQMNSLKPEDTAVYYCAKRGYASGSKWDYGYWGQGTQVTVSS | high polyreactivity
7 | QVQLVESGGGLVQAGGSLRLSCAASGFIFPQNAMGWYRQAPGKERELVAAIRWSGGRTYYADSVKGRFTISRDNAKNTVYLQMNSLNPEDTAVYYCAADVRQRGIYGPGPHYYWGQGTQVTVSS | high polyreactivity
8 | QVQLVESGGGLVQAGGSLRLSCAASGSIFRRYAMGWYGQAPGKERELVAAISWSGGSTYYADSVKGRFTISRDNAKNTVYLQMNSLKPEDTAVYYCAARHRQQKLDYWGQGTQVTVSS | high polyreactivity
9 | QVQLVESGGGLVQAGGSLRLSCAASGSIFFGYGMGWYRQAPGKERELVATITTSGGTYYADSVKGRFTISRDNAKNTVYLQMNSLKPEDTAVYYCNKEDYGLYPYYVSVGYDYWGQGTQVTVSS | low polyreactivity
10 | QVQLVESGGGLVQAGGSLRLSCAASGYIFQRDAMGWYRTAPGKEREFVAAIRYSGGSTYYADSVKGRFTISRDNAKNTVYLQMNCLKPEDTAVYYCAADQRDPWRSAYGYYYWGQGTQVTVSS | high polyreactivity
11 | QFQLVESGGGLVQAGGSLRLSCAASGRTFGGYAMGWYRQAAGKVREFVAALTYRGASTYYSDSVKGRFTISRDNAKNTVYFQMNSLKPEDTAVYYCAAEGSIKYFVGYTWGYNYWGQGTQVTVSS | low polyreactivity
12 | QVQLVESGGGLVQAGGSLRLSCAASGSILGDYGMGWYRQAPGKEREVVAAITWNGDSTYYADSVKGRFTISRDNAKNTVYLQMNSLKPEDTAVYYCAADLQDYKYYPWYGYWGQGTQVTVSS | low polyreactivity
13 | QVQLVESGGGLVQAGGSLRLSCAASGNTLRYNVMGWYRQAPGKERELVAAISGGGSTSYTDSVKGRFTISRDNAKNTVYLQMNSLKPEDTAVYYCAKRSFVGGRGRDSDYWGQGTQVTVSS | low polyreactivity
14 | QVQLVESGGGLVQAGGSLRLSCAASGNIFVINAMGWYRQAPGKERELVAAINWTGGNTYYADSVKGRFTISRDNAKNTFYLQMNSLKPEDTAVYYSAADRRWFVWGLGYWGQGTQVTVSS | low polyreactivity
15 | QVQLVESVGGLVQAGGSLRLSCAASGSISGYYAMGWYRQAPGKERELVASIRYTGARTYYADSVKGRFTISRDNAKNTVYLQMHSLKPEDTAVYYCAADVNRDRVWGGDYWGQGTQVTVSS | low polyreactivity
16 | QFQLGESGGGLVQAGGSLRLSCAASGYIFKKNAMGWYRQAPGYERELVAVISARGGRTYYADSVKGRFTISRDKGKNTVYLQMNSLKPEDTAVYYCAAVSLGITYDYWGQGTQVTVSS | low polyreactivity
17 | QVQLVESGGGLVQAGGSLRLSCAASGLTFRLNAMGWYRQAPGKERELVAAITRGGRTNYADSVKGRFTISRDNAKNTVYLQMNSLKPEDTAVYYCAARYVERHTDYYYWGQGTQVTVSS | low polyreactivity
18 | QVQLVESGGGLVQAGGSLRLSCAASGSIFGDNAMGWSRQAPGKERDLVAAISSGGPTYADSVKGRFTISRDYAKNTVYLLMNSLKPEDTAVYYCNATDGMTPYDLTDIEFDYWGQGTHVTVSS | low polyreactivity
19 | QVQLVESGGGLVQAGGSLRLSCAASGLTLFRYAMGWYRQAPGKERELVAAIDYGGGTYYADSVKGRFTISRDNAKNTVYLQMNSLKPEDTAVYYCAVEPEYKYYEGDYWGQGTQVTVSS | low polyreactivity
20 | QVQLVESGGGLVQAGGSLRLSCAASGSTFKGYTMGWYRQAPGKEREFVATITFSDGSTYYADCVKGRFTISRDNAKNTVYLQMNSLKPAVTAVYYCNVDSPIGYDYWGQGTQVTVSS | low polyreactivity
21 | QVQLVESGGGLVQAGGSLRLSCAASGFTFYYYAMGWYRQAPGKEREMVAAISGGGGSTYYADSVKGRFTISRDNAKNTVYLQMNSLKPEDTAVFYCAAEYRGYPEDEYWGQGTQVTVSS | high polyreactivity
22 | QVQLVESGGGLVQAGGSLRLSCAASGSIFEFYTMGWYRQAPGKERELVAAITASGGSTYYADSVKGRFTISRDNAKNTVYLQMNSLKPEDTAVYYCAARFRKQSKTPSPRRYDSWGQGTQVTVSS | high polyreactivity

Row | Sequence | polyreactivity (PSR sort gate)
23 | QVKLVESGGGLVQAGGSLRLTCAASGITFFIYAMGWYRQAPGKERELFYAIRSGGSTNYADSVKGRFTISRDNAKNTVYLQMNSLKPEDTAVYYCAADVYGTVRRVGWYYVGEGYDYWGQGTQLTVSS | low polyreactivity
24 | QVQIVESGGGLVQAGGSLRLSCAASGSTFPTNAMGWYRQAPGKERELVAAITSTGSTYADSVKGRFTISRDNAKNTVYLQMNSLKPEDTAVYYCAADTQWTTPYDYWGQGTQVTVSS | low polyreactivity
25 | QVQLVESGGGLVQAGGSLRLSCAASGFIFGRYAMGWYRQAPGKERELVAAISRSGGSTHYADSVKGRFTISRDNAKNTVYLQMNSLKQVDTAVYYCNTYLTIWGYFYGYDYWGQGTQVTVSS | high polyreactivity
26 | QGQLEESGGGLVQAGGSLRLSCAASGFIFGGNDMGWYRQAPGKERELVAAISKSGGRTYYADSVKGRFTISRDNAKNTVYLQMNSLKPEDTAVYYCAAVPGRTAEDYGEDYWGQGTQVTVSS | high polyreactivity
27 | QVQRVESGGGLVQAGGSLRLSCAAAGLTFYGYAMGWYRQAPGKERELVAAITRSGGSTYYADSVKGRFTISRDNAKNTVYLQMNSLKPEDTAVYYCAAEEEYLYQSNRLHPYDYWGQGTQVTVSS | low polyreactivity
28 | QVQLVESGGGLVQAGGSLRLSCAASGSTFNLNAMGWYRQAPGKERELVAAIDSGGRTNYADSVKGRFTISRDNAKNTVYLQMNSLKPEDTAVYYCAARVLPYLTPRRQMYYWGQGTQVTVSS | low polyreactivity
29 | QVQLVESGGVLVQAGGSLRLSCAASGSLFSRYAMGWYRQAPGKERELVAAISSSGGSTYYADSVKGRFTISRDNAKNTVYLQMISLKREDTAVYDCGAELRYYLVWLYYWGQGTQVSVSS | low polyreactivity
30 | QVQLVESGGGLVQAGGSLRLSCAASGSTFYKNAMGWYRQAPGKERELVAAITRSGGSTYYADSVKGRFTISRDNAKNTVYLQMNSLKPVDTAVYYCAYYPYGYDYWGQGTQVTVSS | high polyreactivity
31 | QVQLVESGGGLVQAGGSLRLSCAASGSTFQGYSMGWYRPAPGKERELVAAISGSGGNTYYADSVKGRFTISRDNAKNTVYLQMNSLKPEDTAVYYCAAGHVRTDWRYGYWGQGTQVTVSS | low polyreactivity
32 | QVQLVESAGGLVQAGGSLRLSCAASGRIFPYYAMGWYRQAPGKERELVAAITTDGGGTYYADSVKGRFTISRDNSKNTVYLQMNSMKPEDTAVYYCAVPSYQWYDPENYWGQGTQVTVSS | low polyreactivity
33 | QVQLVESGGGLVQAGGSLRLSCAASGSTFVINAMGWYRQAPGKERELVAAISYDGGGTYYADSVKGRFTISRDNAKNTVYLQMNSLKPEDTAVYYCAAENFYPYTYYASDYWGQGTQVTVSS | high polyreactivity
34 | QVQLVESGGGLVQAGGSLRLSCAASGRIFLPYAMGWYRHAPGKERELVAAISRTGDRTYYADSVKGRFTISRDNAKNTVYLHMNSLKPEDTAVYYCNTSLPPTVIRYHLRYPRYDHWGQGTQVTVSS | low polyreactivity
35 | QVQLVESGGGLVQAGGSLRLSCAASGRIFPSYAMGWYRQAPGKERELVAAISSSGGRTYYADSVKGRFTISRDNAKNTVYLQMNSLKPEDTAVYYCAARWVQYGVRYDYWGQGTQVTVSS | high polyreactivity
36 | PVQLVDSGGGLVQAGGSLRLSCAASGRIFYGYALGWYRQAPGKERDLDAAIDWSGGSTYADSVTGRFTISRDNAKNTVYLPMHSLKPEDTAVYYCATDWVTSQQPYYWIYEYWGQGTQVTVSS | low polyreactivity
37 | QVQLVESGGGLVQAGGSLRLSCAASGFTFKWYTRGWYRQAPGKERELVAAISTRGGSTYYADSVKGRFTISRDNAKNTVYLQMNSLKPEDTAVYYCAAVYRRGSGYDYWGQGTQVTVSS | high polyreactivity
38 | QVQLVESGGGLVQAGGSLRLSCAASGRIFGYYAMGWYRQAPGKERELVARISSSGGSTYYADSVKGRFTISRDNAKNTVYLQMNSLKPEDTAVYYCNTASNRYPGWRAEFDYWGQGTQVTVSS | low polyreactivity
39 | QVQLVESGGGLVQAGGSLRLSCAASGFTFRVNAMGWYRQAPGKESELVAAISSGGGITYYADSVKGRFTISRDNAKNTVYLQMNSLKPEDTAVYYCAARENRYLERDYWGQGTQVTVSS | low polyreactivity
40 | QVQLVESGVGLVQAGGILSLSCAASGLTFGAYTMGWYRQAPGKERELVAAITSSGGRTYYADSVKGRFTISRDNAKITFYLQMNSLKPEDTAVFYCNARIFRSPNPYDYWGQGTQVSVSS | high polyreactivity
41 | QVQLVESGGGLVQAGGSLRLSCAGSGSTFKKYPMGWYREATGKEREFVAAISRGGRTYYADSVKGRFTSSRDNAKTTVYLQMNSLNPEDTAVYYCAADTFAYQEVYYWGQGTQVTVSS | high polyreactivity
42 | QVQLLETVGGLVQAGGSLRLSCASSGFTFGYYTMGWYRQAPGKERELVAAISSSGGRTYYADSVKGRFTISRDIAKNTVYLQMISLKPEDTALYYCNVYYISTDLYYWGQGTQVTVSS | high polyreactivity
43 | QVQLVESGGGLVQAGGSLRLICAASGRTFYVNAMGWYRQAPGKERELVATITDRGGRTYYADSVKGRFTISRDNAKNTVYLQMNSLKPEDTAVYYCAATRWYEVDYWGQGTQVTVSS | low polyreactivity
